Measured values taken from EP3529371B1.
Like-named read-outs stand apart in the source and are kept apart here.

Experiments:
Test in all cases: cell-based or functional assay
[1] = target: H6tHAtev1S(146-206)LS D179KN196QQ197NR198K (Photinus pyralis) (UniProt P60877)
[2] = target: H6tHA1S(146-206)-sfGFP-S (Macaca mulatta (Rhesus macaque)) (UniProt P60877)
[3] = target: H6tHAtev1S(146-206)LS D179KA199R (Photinus pyralis) (UniProt P60877)
[4] = target: H6tHA1S(146-206)-NL-S (Macaca mulatta (Rhesus macaque)) (UniProt P60877)
[5] = target: H6tHAtev1S(140-197)L (Photinus pyralis) (UniProt P60877)
[6] = target: H6tHA1V(2-94)-sfGFP-S (Bos taurus (Bovine)) (UniProt P63026)
UniProt P63026, sequence (P63026 2-94): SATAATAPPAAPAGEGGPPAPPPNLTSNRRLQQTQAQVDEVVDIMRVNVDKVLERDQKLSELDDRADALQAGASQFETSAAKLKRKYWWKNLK

[7] = target: H6tHAtev1V(60-94)L (Photinus pyralis)
[8] = target: H6tHA1V(2-94)-sfGFP-S (Bos taurus (Bovine)) (UniProt P63026); remark: listed apart in the source

Row | Molecule | EC50 of substrate cleavage, endopeptidase assay, JDZ-buffer, 1 h 37°C [1] [nM] | EC50 of cleavage of generic substrate with reporter sfGFP, JDZ-buffer, 1 h 37°C [2] [nM] | EC50 of substrate cleavage, endopeptidase assay, JDZ-buffer, 1 h 37°C [3] [nM] | EC50 of cleavage of generic substrate with reporter NL, JDZ-buffer, 1 h 37°C [4] [nM] | EC50 of cleavage of generic substrate with reporter sfGFP, JDZ-buffer, 1 h 37°C [6] [nM] | further results
1 | BoNT/C (recombinant, activated full-length) (from UniProt P18640 2-1291) (enzyme) | 0.6 | 20 | 200 | 10 |  | fold decrease of EC50 relative to generic H6tHAtev1S(146-206)LS [1]: 16 fold
2 | BoNT/E1 (recombinant, activated full-length) (from UniProt Q00496 2-1251) (enzyme) | 1000 | 0.1 | 1000 | 0.2 |  | EC50 of substrate cleavage, endopeptidase assay, JDZ-buffer, 1 h 37°C [5]: 0.2 nM
3 | BoNT/B1 (recombinant, activated full-length) (from UniProt B1INP5 2-1291) (enzyme) |  |  |  |  | 0.02 | EC50 of substrate cleavage, endopeptidase assay, JDZ-buffer, 1 h 37°C [7]: 0.6 nM; fold increase of EC50 relative to generic H6tHAtev1V(2-94)LS [7]: 10 fold
4 | BoNT/D (recombinant, activated full-length) (from UniProt P19321 2-1276) (enzyme) |  |  |  |  | 1 | 
5 | BoNT/A1 (recombinant, activated full-length) (from UniProt P0DPI1 2-1296) (enzyme) |  | 0.03 | 0.4 | 0.01 |  | 
6 | BoNT/F1 (recombinant, activated full-length) (enzyme) MPVVINSFNYNDPVNDDTILYMQIPYEEKSKKYYKAFEIMRNVWIIPERNTIGTDPSDFDPPASLENGSSAYYDPNYLTTDAEKDRYLKTTIKLFKRINSNPAGEVLLQEISYAKPYLGNEHTPINEFHPVTRTTSVNIKSSTNVKSSIILNLLVLGAGPDIFENSSYPVRKLMDSGGVYDPSNDGFGSINIVTFSPEYEYTFNDISGGYNSSTESFIADPAISLAHELIHALHGLYGARGVTYKETIKVKQAPLMIAEKPIRLEEFLTFGGQDLNIITSAMKEKIYNNLLANYEKIATRLSRVNSAPPEYDINEYKDYFQWKYGLDKNADGSYTVNENKFNEIYKKLYSFTEIDLANKFKVKCRNTYFIKYGFLKVPNLLDDDIYTVSEGFNIGNLAVNNRGQNIKLNPKIIDSIPDKGLVEKIVKFCKSVIPRKGTKAPPRLCIRVNNRELFFVASESSYNENDINTPKEIDDTTNLNNNYRNNLDEVILDYNSETIPQISNQTLNTLVQDDSYVPRYDSNGTSEIEEHNVVDLNVFFYLHAQKVPEGETNISLTSSIDTALSEESQVYTFFSSEFINTINKPVHAALFISWINQVIRDFTTEATQKSTFDKIADISLVVPYVGLALNIGNEVQKENFKEAFELLGAGILLEFVPELLIPTILVFTIKSFIGSSENKNKIIKAINNSLMERETKWKEIYSWIVSNWLTRINTQFNKRKEQMYQALQNQVDAIKTVIEYKYNNYTSDERNRLESEYNINNIREELNKKVSLAMENIERFITESSIFYLMKLINEAKVSKLREYDEGVKEYLLDYISEHRSILGNSVQELNDLVTSTLNNSIPFELSSYTNDKILILYFNKLYKKIKDNSILDMRYENNKFIDISGYGSNISINGDVYIYSTNRNQFGIYSSKPSEVNIAQNNDIIYNGRYQNFSISFWVRIPKYFNKVNLNNEYTIIDCIRNNNSGWKISLNYNKIIWTLQDTAGNNQKLVFNYTQMISISDYINKWIFVTITNNRLGNSRIYINGNLIDEKSISNLGDIHVSDNILFKIVGCNDTRYVGIRYFKVFDTELGKTEIETLYSDEPDPSILKDFWGNYLLYNKRYYLLNLLRTDKSITQNSNFLNINQQRGVYQKPNIFSNTRLYTGVEVIIRKNGSTDISNTDNFVRKNDLAYINVVDRDVEYRLYADISIAKPEKIIKLIRTSNSNNSLGQIIVMDSIGNNCTMNFQNNNGGNIGLLGFHSNNLVASSWYYNNIRKNTSSNGCFWSFISKEHGWQEN |  |  |  |  |  | EC50 of cleavage of generic substrate with reporter sfGFP, JDZ-buffer, 1 h 37°C [8]: 0.06 nM
